Assay: yeast display, Sf9 membrane polyspecificity reagent, FACS + sequencing; frameworks hold sequencing errors
How it was run: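 Galactose-induced (36–48 hours) yeast carrying a synthetic nanobody display library were exposed to 10% biotinylated, detergent-solubilized Sf9 membrane reagent at 4 °C for 1 hour. FACS followed streptavidin microbead enrichment, using low and high (top ~1%) gates for expression (anti-HA) and reagent binding (streptavidin). Colony PCR, MiSeq 2 × 250 sequencing and CDR-length filtering followed. Labels for polyreactivity reflect the gate of origin.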

| Sequence | polyreactivity (PSR sort gate) |
| --- | --- |
| QVQLVESGGGLVQAGGSLRLSCAASGSIFDIYAMGGYRQAPGKERELVAGITRDDGSTYYADSVKGRFTISRDNAKNTVYLQMNSLNPEDTAVYYCNRPGDYPDYVPGYYYWGQGTQVTVSS | low polyreactivity |
| QVQLVESGGGLVQAGGSLRLSCAASGSIFDIYAMGWYRQAPGKERELVADITISGGSTYYADSVKGRFTISRDNAKNTVYLQMNSLKPEDTAVYYCKKAYLGYRYDLYDYWGQGTQVTVSS | low polyreactivity |
| QVQLVESGGGLVQAGGSLRLSCAASGSIFDIYAMGWYRQAPGKERELVASIRRRGGSTYYADSVKGRFTISRDNAKNTVYLQMNSLKPEDTAVYYCNARRVWLRTTGTNWPERGYWGQGTQVTVSS | high polyreactivity |
| QVQLVESGGGLVQAGGSLRLSCAASGSIFDIYGMGWYRQAPGKERELVASISGGAGSTNYADSVKGRFTISRDHAKNTVYLQMNSLKPEDTAVYYCAAEVYVPDYFQHKFDVEYEYWGQGTQVTVSS | low polyreactivity |
| QVQLVESGGGLVQAGGSLRLSCAASGSIFDNAMGWYRQAPGKERELVAAISLSGSRTYYADSVKGRFTISRDNAKNTVYLQMNSLKPEDTAVYYCNTELVYYSTYDYWGQGTQVTVSS | low polyreactivity |
| QVQLVESGGGLVQAGGSLRLSCAASGSIFDPNAMGWYRQAPGKEREFVAAISYGGGSTTYADSVKGRFTISRDNAKNTVYLQMNSLKPEDTAVYYCAAGFYTYPTWFHPGYLFSAGDYWGQGTQVTVSS | low polyreactivity |
| QVQLVESGGGLVQAGGSLRLSCAASGSIFDPNAMGWYRQAPGKERELVAAITSGGGSTYYADSVKGRFTISRDNAKNTVYLQMNSLNPEDTAVYYCNKVFVLPYKFVAWFDYWGQGTQVTVSS | low polyreactivity |
| QVQLVESGGGLVQAGGSLRLSCAASGSIFDPYAMGWYRQAPGKERELVAAINGGSGSTFYADSVKGRFTISRDNAKNTVYLQMNSLKPEDTAVYYCAAKIWRYSPSYYPEPRGDYWGQGTQVTVSS | low polyreactivity |
| QVQLVESGGGLVQAGGSLRLSCAASGSIFDPYAMGWYRQAPGKERELVAAITYSVGGTTYYADSVKGRFTISRDNAKNTVYLQMNSLKPEDTAVYYCAAEWWGNPFDYWGQGTQVTVSS | high polyreactivity |
| QVQLVESGGGLVQAGGSLRLSCAASGSIFDPYAMGWYRQAPRKERELVAAIRWSGTSTYYADSVMGRFTISRDNAKNTVYLQMNSLKPEDTAVYYCAARGSKGFSSPFGYWGQGTQLTVSS | high polyreactivity |
| QVQLVESGGGLVQAGGSLRLSCAASGSIFDQNAMVWYRQAPGKERELVAAITRGGSTKYADSVKGRFTISRDNAKNTVYLQMNSLKPEDTAVYYCARTARRRYQPYEYWGQGTQVTVSS | low polyreactivity |
| QVQLVESGGGLVQAGGSLRLSCAASGSIFDRYAMGWYRQAPGKERELVAAISKSGGRTYYADSVKGRLTISRDNAKNTVYLQMNSLKPEDTAVYYCAADPLLGYLSHYYWGQGTQVTVSS | high polyreactivity |
| QVQLVESGGGLVQAGGSLRLSCAASGSIFDRYAMGWYRQAPGKERELVAAISTGGSTNYADSVKGRFTISRDNAKNTVYLQMNSLKPEDTAVYYCAARYLYRMYYWGQGTQVTVSS | low polyreactivity |
| QVQLVESGGGLVQAGGSLRLSCAASGSIFDRYAMGWYRQAPGKERELVASIRQRGGSTYYADSVKGRFTISRDNAKNTVYLQMNSLKPEDTAVYYCAARKYPFRQSTYDYWGQGTQVTVSS | low polyreactivity |
| QVQLVESGGGLVQAGGSLRLSCAASGSIFDRYGMGLYRQAPGKETELVADITSDGSTNYADSLKGRFTISRDNAKNSVYLQMNSLKREDTAVYYCAVSYTAYYVGYDYWGQGTQVTVSS | low polyreactivity |
| QVQLVESGGGLVQAGGSLRLSCAASGSIFDRYGMGWYRQAPGKERELVADITSDGSTNYADSVKGRFTISRDNAKNTVYLQMNSLKPEDTAVYYCAVSYTAYSVGYDYWGQGTQVTVSS | low polyreactivity |
| QVQLVESGGGLVQAGGSLRLSCAASGSIFDRYVMGWYRQAPGKERELVAAITTSGDGTYYADSVKGRFTISRDNAKNTVYLQMNSLKPEDTAVYYCAAVRRSWKYSTSDYWGQGTQVTVSS | low polyreactivity |
| QVQLVESGGGLVQAGGSLRLSCAASGSIFDSYAMGWYRPEPGKERELVAAISSGGSTNYADSVKGRFTISRDNEKNTVYLQMNSLKPEDTAVYYCAADGSLDAYNYWGQGTQVTVSS | low polyreactivity |
| QVQLVESGGGLVQAGGSLRLSCAASGSIFDSYAMGWYRQAPGKERELVAAISWSGGSTYYADSVKGRFTISRDTAKNTVYLQMNSLKPDDTAVYYCNTDWADYYYYTDYDYWGQGTQLTVSS | high polyreactivity |
| QVQLVESGGGLVQAGGSLRLSCAASGSIFDTNAMGWYIQAPGKEREFVGTITNSGGRTYYADSVKGRFTISRDNAKNTVYLQMNSLKPEDTAVYYCNADVHRFSGNGYRYYYWGQGTQVTVSS | low polyreactivity |
| QVQLVESGGGLVQAGGSLRLSCAASGSIFDTYAMGWYRQAPGKERELVAAITWSGSSTYYADSVKGRFTISRDNAKNTVYLQMNSLKPEDTAVYYCAKDYYVEVTTEYDYWGQGTQVTVSS | high polyreactivity |
| QVQLVESGGGLVQAGGSLRLSCAASGSIFDVNAMGWYRQAPGKERELVAAISQRGTRTYYADSVKGRFTISRDNAKNTVYLQMNSLKPEDTAVYYCNRGGWRQYDSWGQGTQVTVSS | high polyreactivity |

| Sequence | polyreactivity (PSR sort gate) |
| --- | --- |
| QVQLVESGGGLVQAGGSLRLSCAASGSIFDVNAMGWYRQAPGKERELVAAISQRGTRTYYADSVKGRFTISRENAKNTVYLQMNSLKPEDTAVYYCNRGGWRQYDSWGQGTQVTVSS | high polyreactivity |
| QVQLVESGGGLVQAGGSLRLSCAASGSIFDVNTMGWYRQAPGKERELVAAITNGDRTNYADSVKGRFTISRDNAKNTVYLQMNSLKPEDTAVYYCAADSVLDRPVLYLWPWYLGDYWGQGTQVTVSS | low polyreactivity |
| QVQLVESGGGLVQAGGSLRLSCAASGSIFDVYDMGWYRQAPGKERELVASISDSGSSTYYADSVKGRFTISRDNAKNTVYLQMNSLKPEDTAVYYCAAGYYVDRSIYNYWGQGTQVTVSS | low polyreactivity |
| QVQLVESGGGLVQAGGSLRLSCAASGSIFDWNAMGWYRQAPGKERELVAAIRRGGSTYYADSVKGRFTISRDNAKNTVYLQMNSLKPEDTAVYYCATRFYSRYYILDYDYWGQGTQLTVSS | high polyreactivity |
| QVQLVESGGGLVQAGGSLRLSCAASGSIFDWNAMGWYRQAPGKERELVAAISGTGGTKYADSVKGRFTISRDNAKNTVYLQMISLKPEDTAVYYCAVGLVPLRDGWHFYYEFDSWGQGTQVTVSS | low polyreactivity |
| QVQLVESGGGLVQAGGSLRLSCAASGSIFDWNSMGWYRQAPGKERELVATISWDGGSTYYADSVKGRFTISLDNAKNTVYLQMNSLKPEDTAVYYCATVFTGKPAYYARTKYDYWGQGTQVTVSS | low polyreactivity |
| QVQLVESGGGLVQAGGSLRLSCAASGSIFDYNAMGWYRQAPGKERELVAAITYSGGTTYADSVKGRFTISRDNAKNTVYLQMNSLKPEDTAVYYCNADVYRWSGSYTGWDSWHDYWGQGTQVTVSS | low polyreactivity |
| QVQLVESGGGLVQAGGSLRLSCAASGSIFDYNAMGWYRTAPGKERELVAAITGSGGSTYYADSVKGRFTISRDNAKNTVYLQMNSLTQEDTAVYYCAAPVDYRRYEYEYWGQGTQVTLSS | low polyreactivity |
| QVQLVESGGGLVQAGGSLRLSCAASGSIFDYNGMGWYRQAPGKERELVAAISSGGSTNYADSVKGRFTISRDNAKNTVYLQMNSLKPEDTAVYYCAAVGRAKYYYWGQGTQVTVSS | low polyreactivity |
| QVQLVESGGGLVQAGGSLRLSCAASGSIFDYYAMGWYRQAPGKERELVAAISWRGGRTYYADSVKGRFTISRDNAKNTVYLQMNSLKPEDTAVYYCAAYFQRSGFSFRLRGQGTQVTVSS | high polyreactivity |
| QVQLVESGGGLVQAGGSLRLSCAASGSIFDYYAMGWYRQAPGKERELVAAISWSGGSTYYADSVKGRFTISRDNAKNTVYLQMNSLKPEDTAVYYCAAEYYGGELDYWGQGTQVTVSS | low polyreactivity |
| QVQLVESGGGLVQAGGSLRLSCAASGSIFDYYAMGWYRQAPGQERELVAAISVRGGSTYYADSVKGRFTISRDNANNTVYLHKNSLKPEDTAVYYCAADYAYNKYLSVEYWGQGTQVTVSS | low polyreactivity |
| QVQLVESGGGLVQAGGSLRLSCAASGSIFDYYTMGWYRQAPGKERELVATIRSGDSTNYADSVKGRFTISRDNAKNTVYLQMNSLIPEDTAVYYCAADDGAYPTLYDYWGQGTQVTVST | low polyreactivity |
| QVQLVESGGGLVQAGGSLRLSCAASGSIFDYYTMGWYRQAPGKEREWVAAITRSGGRTYYADSVKGRFTISRDNAKNTVYLQMNSLKPEDTAVYYCATRAVSRFGNGPYDYWGQGTQVTVSS | high polyreactivity |
| QVQLVESGGGLVQAGGSLRLSCAASGSIFEEYALGSSRQAPGKERELVAAISRSGGSTYYADSVKGRFTISRDNAKNSVYLQMNSLKPEDTAVYYCAAEWVYGYRFGYWGQGTQVTVSS | low polyreactivity |
| QVQLVESGGGLVQAGGSLRLSCAASGSIFEGNGMGWYRPAPGKERELVAAITFRSGSTYYADSVKGRFTISRDNAKNTVYLQMNSLKPEDTAVYYCAADEYYQVSAYDYWGQGTQVTVSS | low polyreactivity |
| QVQLVESGGGLVQAGGSLRLSCAASGSIFEGNSMGWYRQAPGKERELVAAISRRGGRTYYADSVKGRFTISRDNAKKTVFLQMNSLKPEDTAVYYCNALYFRVGRYQTYSDKFDYWGQGTQVTVSS | high polyreactivity |
| QVQLVESGGGLVQAGGSLRLSCAASGSIFEGYAMGWYRQAPGKERELVAVITTSGGDTYYADSVKGRFTISRDNAKNTVYLQMNSLKPEDTAVYYCNAADAVSDYPDFHIYDYWGQGTQVTVSS | low polyreactivity |
| QVQLVESGGGLVQAGGSLRLSCAASGSIFEGYVMGWYRQAPGKERELVATISFSGGSTYYADSVKGRFTISRDNAKNTVYLQMNSLKPEDTAVYYCNALVYHTKGDYGYWGHGTQVTVSS | low polyreactivity |
| QVQLVESGGGLVQAGGSLRLSCAASGSIFEGYVMGWYRQAPGKERELVATISFSGGSTYYADSVKGRFTISRDNAKNTVYLQMTSLKPEDTAVYFCNALVYHTKGDYGYWGQGTQVTVSS | low polyreactivity |
| QVQLVESGGGLVQAGGSLRLSCAASGSIFEIYDMGWYRQAPGKERELVASITWSGGSTYYADSVKGRFTISRDNAKNTVYLQMNSLKPEDTAVYYCATDKLYGRTVRMDYWGQGTQVSVSS | low polyreactivity |

Reference: the nanobody polyreactivity screen of Harvey et al. (2022)
